According to paper PMC8131759:

Assays:
[1] = molecular target: bacteriophage P22 coat protein (CP), assembled as P22 virus-like particle capsid (bacteriophage P22) (UniProt P26747); test: SEC-MALS; expanded (EX) VLPs made from PC by 3.5 mM SDS for 5 min at room temperature, then ultracentrifuged twice; also SDS-PAGE and TEM
[2] = molecular target: bacteriophage P22 coat protein (CP), assembled as P22 virus-like particle capsid (bacteriophage P22) (UniProt P26747); test: SEC-MALS; procapsid (PC) VLPs from co-expression of CP and AdhD-SP in E. coli, purified; also SDS-PAGE and TEM; cargo number calculated from the molar mass of the particles; 50 mM sodium phosphate, 100 mM sodium chloride, pH 7.0

UniProt P26747, sequence (P26747 whole entry): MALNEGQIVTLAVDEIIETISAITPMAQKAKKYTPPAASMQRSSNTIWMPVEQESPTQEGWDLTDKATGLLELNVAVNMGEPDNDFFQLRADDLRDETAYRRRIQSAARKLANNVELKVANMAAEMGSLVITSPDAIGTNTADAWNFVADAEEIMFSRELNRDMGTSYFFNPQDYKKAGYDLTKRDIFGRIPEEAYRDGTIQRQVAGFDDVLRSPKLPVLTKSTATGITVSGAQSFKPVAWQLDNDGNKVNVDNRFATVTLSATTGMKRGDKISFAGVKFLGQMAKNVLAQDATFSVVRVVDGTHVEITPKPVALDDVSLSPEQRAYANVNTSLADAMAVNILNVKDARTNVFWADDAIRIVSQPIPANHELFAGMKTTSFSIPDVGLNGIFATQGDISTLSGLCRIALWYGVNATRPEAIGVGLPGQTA

Question: How did the stoichiometry N (AdhD-SP per VLP) [1] turn out when “alcohol dehydrogenase-D (AdhD) fused to P22 scaffolding protein (AdhD-SP) (enzyme)” was run?
Answer: 174

Question: What about the stoichiometry N (AdhD per capsid) [2] of the same substance?
Answer: 204
